The values that follow are results of earlier work, collected in PMC4467374.

Data set [1] addresses histone H3 K4me3/K9me3 peptide (Homo sapiens) (UniProt P68431).
For data set [2], the target named is histone H3 K9me3 peptide (Homo sapiens) (UniProt P68431).

Sequence of UHRF1 TTD (Q96T88 124-285): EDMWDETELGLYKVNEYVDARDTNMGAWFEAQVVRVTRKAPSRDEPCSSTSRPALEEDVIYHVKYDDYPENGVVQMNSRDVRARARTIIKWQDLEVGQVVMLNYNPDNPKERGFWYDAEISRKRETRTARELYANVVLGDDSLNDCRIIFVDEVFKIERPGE

For UHRF1 TTD (from UniProt Q96T88), the Kd in data set [1] was 90 µM; in data set [2], 20 µM.
